Test results taken from the supplement of paper PMC7877785.
± gives the uncertainty stated by the source.

Assay: self-splicing fitness, log relative to wild type (ln ratio); higher = more splicing; Tetrahymena group I intron in knt gene, E. coli kanamycin selection, DiMSum; sequences stand for … in CUCUCU…GGAGGGAAAAGUUAUCAGGCAUGCACCUGGUAGCUAGUCUUUAAACCAAUAGAUUGCAUCGGUUUAAAAGGCAAGACCGUCAAAUUGCGGGAAAGGGGUCAACAGCCGUUCAGUACCAAGUCUCAGGGGAAACUUUGAGAUGGCCUUGCAAAGGGUAUGGUAAUAAGCUGACGGACAUGGUCCUAACCACGCAGCCAAGUCCUAAGUCAACAGAUCUUCUGUUGAUAUGGAUGCAGUUCACAGACUAAAUGUCGGUCGGGGAAGAUGUAUUCUUCUCAUAAGAUAUAGUCGGACCUCUCCUUAAUGGGAGCUAGCGGAUGAAGUGAUGCAACACUGGAGCCGCUGGGAACUAAUUUGUAUGCGAAAGUAUAUUGAUUAGUUUUGGAGUACUCGUGGUCG
Summary of the method: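 DiMSum derived fitness as the error-weighted combination of fold changes across replicates, kanamycin versus no kanamycin, normalised to wild type. E. coli BL21(DE3) held the library, which randomised all eight P1ex-region intron nucleotides within the knt kanamycin-resistance gene on pET-22b(+). Six replicate transformations grew overnight at 37°C or 30°C on LB agar with or without 25 μg/mL kanamycin, also containing 100 μg/mL carbenicillin, 50 μM IPTG and 0.2% rhamnose, and pooled colonies were amplicon-sequenced on an Illumina HiSeq 2500.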

Sequence | self-splicing fitness (ln) (30 °C) | self-splicing fitness (ln) (37 °C)
GCUGAGCAAUAUUACGUGUA | -2.4 ± 0.21 | -3.02 ± 0.32
UGGCAGCAAUAUUACGACGC |  | -1.72 ± 0.24
UUAAAGCAAUAUUACGGGAC | -3.27 ± 0.24 | -2.24 ± 0.28
GUACAGCAAUAUUACGUGAA | -3.94 ± 0.13 | -1.51 ± 0.11
AACAAGCAAUAUUACGGAGC | -4.22 ± 0.3 | -3.65 ± 0.36
UGUCAGCAAUAUUACGUAUC | -2.16 ± 0.2 | -1.68 ± 0.29
UUACAGCAAUAUUACGCUGG | -4.24 ± 0.32 | -2.08 ± 0.23
AGCGAGCAAUAUUACGUCGA | -2.82 ± 0.27 | -2.3 ± 0.28
AGCGAGCAAUAUUACGUUGC |  | -3.69 ± 0.42
UAUCAGCAAUAUUACGGCUC | -1.86 ± 0.17 | -0.563 ± 0.18
UAAAAGCAAUAUUACGCGAG | -0.897 ± 0.075 | -0.186 ± 0.095
AUGUAGCAAUAUUACGGUUC | -1.72 ± 0.099 | -1.29 ± 0.12
GAUGAGCAAUAUUACGGCCU | -2.54 ± 0.18 | -1.98 ± 0.23
UCUGAGCAAUAUUACGAUCG |  | -0.514 ± 0.41
CCUAAGCAAUAUUACGUGAG | -1.2 ± 0.057 | -0.711 ± 0.076
UGGUAGCAAUAUUACGACUA | -0.227 ± 0.16 | -0.296 ± 0.2
GUAGAGCAAUAUUACGCACC | -2.47 ± 0.28 | -0.709 ± 0.2
UGCGAGCAAUAUUACGUUCG |  | -1.25 ± 0.34
UCCUAGCAAUAUUACGUCUU | -4.03 ± 0.23 | -2.05 ± 0.14
CAUGAGCAAUAUUACGAAUC |  | -2.57 ± 0.42
AAUAAGCAAUAUUACGUCGA | -1.38 ± 0.099 | -0.488 ± 0.12
UAGGAGCAAUAUUACGGACG |  | -0.862 ± 0.38
CCGCAGCAAUAUUACGUACC | -3.7 ± 0.28 | -3.08 ± 0.47
AUCCAGCAAUAUUACGCUUG | -3.27 ± 0.2 | -2.7 ± 0.25
UGUGAGCAAUAUUACGGGUG | -2.6 ± 0.14 | -1.9 ± 0.13

Sequence | self-splicing fitness (ln) (30 °C) | self-splicing fitness (ln) (37 °C)
AUCCAGCAAUAUUACGGCGG | -1.04 ± 0.09 | -0.327 ± 0.11
AUUAAGCAAUAUUACGCAUG | -1.09 ± 0.08 | -0.301 ± 0.11
CCCUAGCAAUAUUACGGGCU | -4.04 ± 0.25 | -2.71 ± 0.18
GUCUAGCAAUAUUACGGCAU | -0.166 ± 0.092 | 0.88 ± 0.11
ACGUAGCAAUAUUACGCUCU | -0.479 ± 0.12 | -0.414 ± 0.15
GAAUAGCAAUAUUACGGUCU | -0.677 ± 0.084 | -0.0473 ± 0.097
AGAUAGCAAUAUUACGAUUG | -1.65 ± 0.11 | -1.81 ± 0.18
CCAUAGCAAUAUUACGGGAU | -3.65 ± 0.23 | -2.86 ± 0.24
UCAUAGCAAUAUUACGCGAA | -2.95 ± 0.23 | -1.51 ± 0.15
GUACAGCAAUAUUACGGCAC | -0.68 ± 0.11 | 0.0875 ± 0.12
GCCGAGCAAUAUUACGCGGC |  | -2.33 ± 0.36
ACGAAGCAAUAUUACGUAAC | -4.3 ± 0.42 | -2.34 ± 0.49
GGGGAGCAAUAUUACGUGGG | -2.75 ± 0.32 | 
AGCCAGCAAUAUUACGUGGG | -3.16 ± 0.13 | -1.3 ± 0.11
GAGAAGCAAUAUUACGUACC | -1.18 ± 0.23 | -0.414 ± 0.35
CGAUAGCAAUAUUACGAAAU | -3.36 ± 0.28 | -2.5 ± 0.33
CAACAGCAAUAUUACGUGCA | -2.72 ± 0.11 | -1.57 ± 0.092
GUUCAGCAAUAUUACGCACA | 1.48 ± 0.34 | -1.71 ± 0.49
AUAGAGCAAUAUUACGGAGC |  | -2.05 ± 0.38
GGGAAGCAAUAUUACGUGCA | -1.36 ± 0.1 | 0.0267 ± 0.12
GGCUAGCAAUAUUACGAAGA | -2.05 ± 0.43 | -0.778 ± 0.36
CCCCAGCAAUAUUACGGGAC | -3.88 ± 0.18 | -2.12 ± 0.14
CGUUAGCAAUAUUACGAUCU | -1.14 ± 0.091 | -0.132 ± 0.12
UCUGAGCAAUAUUACGUAUG | -3.07 ± 0.18 | -2.07 ± 0.17
CGCGAGCAAUAUUACGCGUC | -3.67 ± 0.28 | -2.68 ± 0.22

Sequence | self-splicing fitness (ln) (30 °C) | self-splicing fitness (ln) (37 °C)
GCAGAGCAAUAUUACGCUUA | -1.76 ± 0.3 | -1.99 ± 0.3
CCCCAGCAAUAUUACGUUAA | -3.33 ± 0.14 | -2.76 ± 0.13
UGAUAGCAAUAUUACGGAUC | -2.86 ± 0.22 | -2.13 ± 0.3
AAACAGCAAUAUUACGCUUU | -3.11 ± 0.095 | -1.33 ± 0.083
GAAGAGCAAUAUUACGAAGC | -3.81 ± 0.46 | -0.865 ± 0.3
GAGUAGCAAUAUUACGGGAA | -2.33 ± 0.21 | -2.14 ± 0.19
CGGUAGCAAUAUUACGAUAG | -0.323 ± 0.11 | 0.279 ± 0.14
AAGAAGCAAUAUUACGGAAC |  | -2.58 ± 0.45
AAUAAGCAAUAUUACGCUAG | -1.79 ± 0.18 | -1.17 ± 0.17
GAUUAGCAAUAUUACGCUCG | -1.11 ± 0.12 | -0.397 ± 0.15
GAGUAGCAAUAUUACGAGGA |  | -1.81 ± 0.4
CCCAAGCAAUAUUACGUUAA | -3.68 ± 0.17 | -2.62 ± 0.14
UUCAAGCAAUAUUACGGGCG | -0.977 ± 0.077 | -0.629 ± 0.1
GGGGAGCAAUAUUACGUCGA | 0.294 ± 0.28 | 
UCGGAGCAAUAUUACGGGAU | -3.48 ± 0.25 | -2.81 ± 0.38
UGCAAGCAAUAUUACGGUAA | -1.08 ± 0.12 | -0.838 ± 0.11
UCUUAGCAAUAUUACGUUGA | -2.76 ± 0.22 | -1.94 ± 0.18
ACAUAGCAAUAUUACGGUUU | -2.13 ± 0.057 | -0.763 ± 0.071
AGGCAGCAAUAUUACGUAUA | -3.08 ± 0.15 | -1.56 ± 0.12
GUCCAGCAAUAUUACGGCUU | -0.269 ± 0.068 | 0.16 ± 0.087
ACUAAGCAAUAUUACGGGUA | -1.77 ± 0.11 | -0.856 ± 0.11
CAUGAGCAAUAUUACGAGUC | -4.56 ± 0.28 | -3.27 ± 0.22
UAGCAGCAAUAUUACGGAAC | -4.05 ± 0.27 | -3.08 ± 0.31
GUUAAGCAAUAUUACGACAG | -2.85 ± 0.28 | -1.82 ± 0.33
UAUGAGCAAUAUUACGGACU | -3.55 ± 0.4 | -2.46 ± 0.26

Sequence | self-splicing fitness (ln) (30 °C) | self-splicing fitness (ln) (37 °C)
AGUCAGCAAUAUUACGGAAU | -1.84 ± 0.084 | -0.425 ± 0.077
CACUAGCAAUAUUACGGUCA | -0.522 ± 0.092 | -0.198 ± 0.12
AAAGAGCAAUAUUACGAGUC | -3.41 ± 0.38 | -2.63 ± 0.45
CUAAAGCAAUAUUACGAACU | -5.08 ± 0.38 | -2.04 ± 0.19
ACCCAGCAAUAUUACGUAGC | -0.673 ± 0.044 | -0.163 ± 0.064
CUACAGCAAUAUUACGGCGC | -3.96 ± 0.29 | -1.68 ± 0.39
GUACAGCAAUAUUACGUCCA | -2.12 ± 0.13 | -1.23 ± 0.14
CAAGAGCAAUAUUACGGAUC | -3.07 ± 0.18 | -3.27 ± 0.27
CCGGAGCAAUAUUACGGGAA | -2.09 ± 0.32 | -2.13 ± 0.37
CACGAGCAAUAUUACGAGAG | -3.14 ± 0.15 | -2.18 ± 0.18
CAGGAGCAAUAUUACGGUGC | -2.68 ± 0.26 | -1.76 ± 0.28
GAGGAGCAAUAUUACGAUGG | -3.58 ± 0.2 | -2.44 ± 0.22
CAGAAGCAAUAUUACGGAGU | -3.56 ± 0.28 | -3.14 ± 0.4
UGAUAGCAAUAUUACGUAAG | -1.52 ± 0.093 | -0.601 ± 0.11
CUGCAGCAAUAUUACGGUGA | -2.37 ± 0.12 | -0.923 ± 0.099
CAUCAGCAAUAUUACGAUGU | -3.52 ± 0.15 | -2.58 ± 0.15
CCACAGCAAUAUUACGCGCU | -4.48 ± 0.23 | -2.26 ± 0.15
UCUAAGCAAUAUUACGCUCG | -1.43 ± 0.2 | -1.36 ± 0.18
UACGAGCAAUAUUACGACAC | -3.07 ± 0.19 | -3.28 ± 0.25
GGGCAGCAAUAUUACGGUUG | -1.94 ± 0.12 | -1.11 ± 0.13
UGUAAGCAAUAUUACGUUGG | -2.14 ± 0.14 | -1.46 ± 0.18
CUCCAGCAAUAUUACGAGCC | -2.73 ± 0.22 | -2.15 ± 0.28
GACCAGCAAUAUUACGGAAU | -0.34 ± 0.046 | 0.128 ± 0.066
UUGUAGCAAUAUUACGUGUG | -1.28 ± 0.17 | -1.17 ± 0.11
